This is an account of results in publication PMC7218104, “Consensus Design of an Evolved High-Redox Potential Laccase” (Frontiers in Bioengineering and Biotechnology, 2020).

Substitutions are numbered along the chain they refer to. Numbers in names are those of the source.

What all share (experiment): purified protein
Holding throughout (conditions): sodium phosphate/citrate buffer 100 mM, pH 4.0

Substrate in data set [1]: COc1ccccc1O
Substrate in data set [2]: COc1cc(/C=C/C(=O)O)cc(OC)c1O
It counts as biochemical, basidiomycete PM1.

Substrate in data set [3]: COc1cccc(OC)c1O
The data set is classed as biochemical, basidiomycete PM1.

Substrate in data set [4]: CCn1c(=NN=c2sc3cc(S(=O)(=O)O)ccc3n2CC)sc2cc(S(=O)(=O)O)ccc21
The data set is classed as biochemical, basidiomycete PM1.

B1: OB-1 laccase (evolved variant of PM1 laccase, PM1Lac) (basidiomycete PM1; A260P/A482T/D302E/H229Y/S245G/S447N/V183A) (protein)
chain: SIGPVADLTISNGAVSPDGFSRQAILVNDVFPSPLITGNKGDRFQLNVIDNMTNHTMLKSTSIHWHGFFQHGTNWADGPAFVNQCPISTGHAFLYDFQVPDQAGTFWYHSHLSTQYCDGLRGPIVVYDPQDPHKSLYDVDDDSTVITLADWYHLAAKVGPAAPTADATLINGLGRSINTLNADLAVITVTKGKRYRFRLVSLSCDPNYTFSIDGHSLTVIEADGVNLKPQTVDSIQIFPAQRYSFVLNADQDVDNYWIRALPNSGTRNFDGGVNSAILRYEGAAPVEPTTTQTPSTQPLVESALTTLEGTAAPGNPTPGGVDLALNMAFGFAGGRFTINGASFTPPTVPVLLQILSGAQSAQDLLPSGSVYSLPANADIEISLPATSAAPGFPHPFHLHGHTFAVVRSAGSSTYNYANPVYRDVVNTGSPGDNVTIRFRTDNPGPWFLHCHIDFHLEAGFTVVMAEDIPDVAATNPVPQAWSDLCPTYDALSPDDQ
notes: mature laccase secreted from S. cerevisiae BJ5465 (pJRoC30) with evolved alpha-factor prepro-leader carrying V[alpha10]D, N[alpha23]K, A[alpha87]T; purified to homogeneity
As for B1, the Km in “purified protein [1]” turned out to be 2600 ± 400 µM; in “purified protein [2]”, 320 ± 20 µM; in the data set “purified protein [3]” it was 150 ± 10 µM; in the data set “purified protein [4]”, 7 ± 0.6 µM. For the same protein, the kcat in “purified protein [1]” amounted to 117 s⁻¹; in the data set “purified protein [2]”, 741 ± 14.1 s⁻¹; in the data set “purified protein [3]” it was 565 ± 13 s⁻¹; in the data set “purified protein [4]” it was 690 ± 20.2 s⁻¹. The kcat/Km in the data set “purified protein [1]” was 44600 M⁻¹ s⁻¹; in the data set “purified protein [2]”, 2.29e+06 M⁻¹ s⁻¹; in the data set “purified protein [3]”, 3.84e+06 M⁻¹ s⁻¹; in “purified protein [4]” it was 1.06e+08 M⁻¹ s⁻¹.

B2: OB-1 laccase (evolved variant of PM1 laccase, PM1Lac) (basidiomycete PM1; A260P/A261G/A482T/D302E/H229Y/S245G/S447N/V183A) (protein)
chain: B1 chain with A240G
notes: as for B1
On to B2, for which the Km in the data set “purified protein [1]” was 3400 ± 400 µM; in the data set “purified protein [2]”, 450 ± 60 µM; in the data set “purified protein [3]”, 230 ± 10 µM; in the data set “purified protein [4]” it was 9 ± 0.9 µM. Besides, the turnover number (kcat) in “purified protein [1]” came out at 171 s⁻¹; in “purified protein [2]”, 1430 ± 65.2 s⁻¹; in the data set “purified protein [3]” it was 1130 ± 18.4 s⁻¹; in “purified protein [4]” it was 1330 ± 42.3 s⁻¹. Moreover, the kcat/Km in the data set “purified protein [1]” came to 50300 M⁻¹ s⁻¹; in “purified protein [2]”, 3.18e+06 M⁻¹ s⁻¹; in the data set “purified protein [3]” it was 5.56e+06 M⁻¹ s⁻¹; in “purified protein [4]” it was 1.4e+08 M⁻¹ s⁻¹.

What is called Km is the concentration of substrate that gives half-maximal velocity. As a reminder, the kcat is the maximal rate divided by the concentration of active sites. In general, kcat/Km refers to the turnover number divided by the Michaelis constant.
